Measurements as given in patent US20250269026A1 (CHENGDU KELUN PRECISION BIOTECHNOLOGY, published 2025).

Biological target: biotin-labeled MSLN antigen (UniProt Q13421 296-580, limits assumed, biotin label (site not stated))
Test: flow cytometry; CAR-T cells labeled with biotin-labeled MSLN antigen, detected with fluorescent streptavidin
Source text: The nucleic acid sequence encoding the CAR was expressed under the drive of promoter, and the lentivirus-transfected T cells were labeled with biotin-labeled MSLN antigen, and then detected with fluorescently labeled streptavidin, and determined by flow cytometry, which reflected the expression level of the CAR on the surface of T cells. The CAR positive rate of the CAR-T cells obtained in Example 3 was detected by the above method, and the FACS detection results were shown in the following table.

Sequence of biotin-labeled MSLN antigen (Q13421 other isoform, or with tags, fused parts or gaps limits assumed): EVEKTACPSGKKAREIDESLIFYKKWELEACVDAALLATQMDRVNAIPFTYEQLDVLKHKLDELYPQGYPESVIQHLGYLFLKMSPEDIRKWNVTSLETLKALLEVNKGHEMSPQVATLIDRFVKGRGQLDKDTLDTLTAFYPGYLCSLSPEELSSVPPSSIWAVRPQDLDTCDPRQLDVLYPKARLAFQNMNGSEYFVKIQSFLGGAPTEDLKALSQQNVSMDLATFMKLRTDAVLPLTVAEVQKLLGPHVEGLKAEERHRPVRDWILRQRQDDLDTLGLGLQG

B1: G16-CAR (other)
chain: QVQLVQSGAEVTKPGASVKVSCRASGYPFSNFFMNWVRQAPGQGLEWMGIINPIGGSTTYAQKFQGRVTMTRDTSTDTVYMELSSLRSDDTAVYYCARSSSHLGAFDIWGQGTMVTVSSASGGGGSGGRASGGGGSDIQLTQSPSSVSASVGDRVTITCRASQSISTWVAWYQHKPGVAPKLLIYASPTLQSGVPSRFSGSGSGTDFTLTISSLQSEDFATYYCQQAHSFPITFGQGTRLEIKRTTTPAPRPPTPAPTIASQPLSLRPEACRPAAGGAVHTRGLDFACDIYIWAPLAGTCGVLLLSLVITLYCKRGRKKLLYIFKQPFMRPVQTTQEEDGCSCRFPEEEEGGCELRVKFSRSADAPAYKQGQNQLYNELNLGRREEYDVLDKRRGRDPEMGGKPRRKNPQEGLYNELQKDKMAEAYSEIGMKGERRRGKGHDGLYQGLSTATKDTYDALHMQALPPR
notes: Chimeric antigen receptor on lentivirus-transduced human T cells; the signal peptide is left out here; also called G16 chimeric antigen receptor
Work on B1 yielded a CAR positive rate of 41.5%.

B2: G5-CAR (other)
chain: QVQLVQSGGGLVQPGRSLRLSCAASGFTFDDYAMHWVRQAPGKGLEWVSGISWNSGSIGYADSVKGRFTISRDNAKNSLYLQMNSLRAEDTALYYCAKDMGSSGWSPVDYWGQGTLVTVSSASGGGGSGGRASGGGGSDIQVTQSPSSLSASVGDRVTITCRASQGINHYLAWYQQKPGKAPKLLIYGASTLQTGVSSRFSGSGSGTEFTLTISSLQPEDFATYYCQQLNGYPLGYTFGQGTKVEIKRTTTPAPRPPTPAPTIASQPLSLRPEACRPAAGGAVHTRGLDFACDIYIWAPLAGTCGVLLLSLVITLYCKRGRKKLLYIFKQPFMRPVQTTQEEDGCSCRFPEEEEGGCELRVKFSRSADAPAYKQGQNQLYNELNLGRREEYDVLDKRRGRDPEMGGKPRRKNPQEGLYNELQKDKMAEAYSEIGMKGERRRGKGHDGLYQGLSTATKDTYDALHMQALPPR
notes: Chimeric antigen receptor on lentivirus-transduced human T cells; the signal peptide is left out here; also called G5 chimeric antigen receptor
Binder B2 has a CAR positive rate of 50.5%.
